In patent US8895526B2, “Identification of RNAI targets and use of RNAI for rational therapy of chemotherapy-resistant leukemia and other cancers” (Cold Spring Harbor Laboratory, priority 2009, dated 2014):

B1: Kit.1241: neutral control shRNA, SEQ ID NO: 194 (nucleic acid)
chain: TGCTGTTGACAGTGAGCGATTCCGTGACATTCAACGTTTATAGTGAAGCCACAGATGTATAAACGTTGAATGTCACGGAAGTGCCTACTGCCTCGGA
B2: BRAF.5053: neutral control shRNA, SEQ ID NO: 193 (nucleic acid)
chain: TGCTGTTGACAGTGAGCGCTAGGGTGATGTCTCACTTGAATAGTGAAGCCACAGATGTATTCAAGTGAGACATCACCCTATTGCCTACTGCCTCGGA
B3: BRAF.3750: neutral control shRNA, SEQ ID NO: 191 (nucleic acid)
chain: TGCTGTTGACAGTGAGCGCTAGCATAATGACAATTATTTATAGTGAAGCCACAGATGTATAAATAATTGTCATTATGCTAATGCCTACTGCCTCGGA
B4: BRAF.3826: neutral control shRNA, SEQ ID NO: 192 (nucleic acid)
chain: TGCTGTTGACAGTGAGCGCCCCATTGTTTCTTCCAACTTATAGTGAAGCCACAGATGTATAAGTTGGAAGAAACAATGGGATGCCTACTGCCTCGGA
B5: Eed.1829: shRNA targeting Eed; probably Eed.1820, SEQ ID NO: 227 (nucleic acid)
guide: TGCTGTTGACAGTGAGCGCTAGAAGTAATGTATCTTGCTATAGTGAAGCCACAGATGTATAGCAAGATACATTACTTCTATTGCCTACTGCCTCGGA
B6: Suz12.1676: shRNA, SEQ ID NO: 75 (nucleic acid)
guide: TGCTGTTGACAGTGAGCGATAGGATAGATGTTTCAATCAATAGTGAAGCCACAGATGTATTGATTGAAACATCTATCCTAGTGCCTACTGCCTCGGA
B7: Smarcd1.1858: shRNA, SEQ ID NO: 70 (nucleic acid)
guide: TGCTGTTGACAGTGAGCGCTAGGACCTCTAGATAGTGTTATAGTGAAGCCACAGATGTATAACACTATCTAGAGGTCCTATTGCCTACTGCCTCGGA

Test system: immortalized murine embryonic fibroblasts (Mef)
Assay: Pooled negative selection RNAi screening (deep sequencing)
Type: cell-based
Settings: deep sequencing reads, on dox compared to initial representation
How it was run: (§1)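 A pool of 1230 tet-regulated shRNAs (TRMPV-type) was retrovirally transduced at mostly single copy and ~1000-fold representation into tet-on MLL/AF9+Nras AML cells or immortalized murine embryonic fibroblasts, then cultured on or off doxycycline. shRNA-expressing cells were FACS-sorted, and shRNA representation was quantified by PCR and deep sequencing of genomic DNA, with depletion on dox compared against t0 and off dox.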

Row | Molecule | Fold depletion in Mef [Fold]
1 | B1 | 0.99
2 | B2 | 0.33
3 | B3 | 1.08
4 | B4 | 0.87

Test system: normal hematopoietic cells
Assay: Dual-color competition assay of hematopoietic reconstitution in vivo
Settings: 4 weeks after transplantation, LMN-GFP vs mCherry control
Method: LMN vectors harboring shRNAs are transduced into fetal livers. Infected cells are subsequently transplanted into lethally irradiated recipients. This assay compares the relative contribution of the experimental shRNA (in an LMN vector harboring a GFP marker) to a control, neutral shRNA (in an LMN vector harboring a red fluorescent protein marker (mCherry)). The effect of the experimental shRNA on hematopoesis is assessed by the ratio of these two markers in subsets of peripheral blood cells, or bone marrow or spleen, measured at 4 weeks.
As an additional verification that therapy resistant AML leukemias harbor a unique sensitivity to inhibition of the identified epigenetic pathways, the influence of the epigenetics shRNAs on normal hematopoiesis was also examined in vivo following retroviral transduction of LMN (MSCV-miR30/shRNA-PGK-Neo-IRES-GFP; constructed by inserting a miR30-cassette and a PGK-NeomycinR-IRES-GFP cassette in the MSCV-backbone (Clontech)) into E13.5 fetal livers and subsequent transplantation of infected cells into lethally irradiated recipients (FIG. 27). This assay compares the relative contribution of the experimental shRNA vector (linked with GFP) to control, neutral shRNA LMN vector that harbors the red fluorescent protein (mCherry). At 4 weeks following transplantation of the mixed GFP+ and mCherry+ cells into recipient animals, the ratio of these two colors is measured in subsets of peripheral blood cells of various hematopoietic lineages or in bone marrow and spleens by co-staining with surface markers (e.g. Mac1, Gr1 for myeloid, B220 for B-lymphoid).

Row | Molecule | impact on proliferation of normal hematopoietic cells in vivo
5 | B5 | little, if any impact
6 | B6 | little, if any impact
7 | B7 | little, if any impact

Test system: tet-on competent MLL/AF9+Nras AML
Assay: Pooled negative selection RNAi screening (deep sequencing)
Type: cell-based, mouse
Settings: deep sequencing reads, On Dox compared to T0
How it was run: as §1

Row | Molecule | Fold depletion in AML [Fold]
8 | B1 | 1.88
9 | B2 | 0.66
10 | B3 | 0.76
11 | B4 | 0.92
